The record followed here is IntAct's records for PubMed 17762867.

B1: Adaptin ear-binding coat-associated protein 2 (Mus musculus), Q9D1J1 (parent)
chain: MEESEYESVLCVKPEVHVYRIPPRATNRGYRASEWQLDQPSWSGRLRITAKGKVAYIKLEDRTSGELFAQAPVDQFPGTAVESVTDSSRYFVIRIEDGNGRRAFIGLGFGDRGDAFDFNVALQDHFKWVKQQCEFAKQAQNPDEGPKLDLGFKDGQTIKINIANMRKKEGAAGTPRARPTSAGGLSLLPPPPGGKSSTVIPPSGEQLSVGGSLVQPAVVSGSGGATELWPQSKPAAAATADIWGDFTKSTGSPSSQSQPGTGWVQF
partner: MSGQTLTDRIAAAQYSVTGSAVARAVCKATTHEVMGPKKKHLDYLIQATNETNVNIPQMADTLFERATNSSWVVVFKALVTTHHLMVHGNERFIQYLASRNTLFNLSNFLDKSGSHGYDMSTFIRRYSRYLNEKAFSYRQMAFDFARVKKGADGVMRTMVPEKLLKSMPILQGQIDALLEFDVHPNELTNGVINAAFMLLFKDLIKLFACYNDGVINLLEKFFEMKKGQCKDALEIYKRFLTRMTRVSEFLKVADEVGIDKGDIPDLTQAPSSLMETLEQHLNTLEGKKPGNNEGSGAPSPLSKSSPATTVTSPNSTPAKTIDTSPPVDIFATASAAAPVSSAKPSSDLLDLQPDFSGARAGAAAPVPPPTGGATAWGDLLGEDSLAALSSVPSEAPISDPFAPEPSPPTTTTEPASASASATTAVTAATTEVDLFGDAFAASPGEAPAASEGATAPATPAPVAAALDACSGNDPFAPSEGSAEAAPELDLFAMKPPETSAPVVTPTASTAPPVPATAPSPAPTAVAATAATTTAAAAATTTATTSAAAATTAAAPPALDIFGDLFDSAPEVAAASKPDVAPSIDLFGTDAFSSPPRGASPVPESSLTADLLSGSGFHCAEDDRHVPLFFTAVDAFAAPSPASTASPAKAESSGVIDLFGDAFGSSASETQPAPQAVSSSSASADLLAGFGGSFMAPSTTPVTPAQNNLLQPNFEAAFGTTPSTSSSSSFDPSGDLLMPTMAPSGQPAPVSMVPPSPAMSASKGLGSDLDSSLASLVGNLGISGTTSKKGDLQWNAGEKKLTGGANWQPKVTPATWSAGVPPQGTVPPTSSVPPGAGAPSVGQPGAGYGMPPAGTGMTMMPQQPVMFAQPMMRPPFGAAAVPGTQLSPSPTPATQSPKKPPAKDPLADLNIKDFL
B2: Adaptin ear-binding coat-associated protein 2 (Mus musculus), Q9D1J1 (parent)
chain: B1 chain
partner: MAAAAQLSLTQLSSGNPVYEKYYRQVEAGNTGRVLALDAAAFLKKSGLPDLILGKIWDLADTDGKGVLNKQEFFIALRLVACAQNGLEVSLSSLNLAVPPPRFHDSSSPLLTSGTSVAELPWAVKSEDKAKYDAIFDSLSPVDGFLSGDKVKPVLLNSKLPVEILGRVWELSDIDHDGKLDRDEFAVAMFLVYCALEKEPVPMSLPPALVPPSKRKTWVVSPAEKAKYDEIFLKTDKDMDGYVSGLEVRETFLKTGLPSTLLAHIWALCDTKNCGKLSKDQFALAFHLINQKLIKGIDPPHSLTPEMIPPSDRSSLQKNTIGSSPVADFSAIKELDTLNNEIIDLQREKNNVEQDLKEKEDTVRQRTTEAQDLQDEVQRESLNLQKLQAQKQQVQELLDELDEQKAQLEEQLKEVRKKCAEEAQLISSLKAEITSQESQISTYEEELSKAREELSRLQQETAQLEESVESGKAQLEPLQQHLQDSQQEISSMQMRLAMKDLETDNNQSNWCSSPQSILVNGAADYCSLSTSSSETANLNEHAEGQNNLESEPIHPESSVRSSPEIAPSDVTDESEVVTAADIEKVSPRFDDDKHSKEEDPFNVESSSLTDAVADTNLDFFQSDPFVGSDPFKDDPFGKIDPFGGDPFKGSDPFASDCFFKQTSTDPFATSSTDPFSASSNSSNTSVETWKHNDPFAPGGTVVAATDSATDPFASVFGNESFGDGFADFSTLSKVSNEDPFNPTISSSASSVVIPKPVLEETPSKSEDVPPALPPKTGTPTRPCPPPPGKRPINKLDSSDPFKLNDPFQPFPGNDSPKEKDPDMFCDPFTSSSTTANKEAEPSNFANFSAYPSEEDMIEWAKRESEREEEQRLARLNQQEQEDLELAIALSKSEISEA
B3: Adaptin ear-binding coat-associated protein 1 (Mus musculus), Q9CR95 (parent)
chain: MAAELEYESVLCVKPDVSVYRIPPRASNRGYRASDWKLDQPDWTGRLRITSKGKIAYIKLEDKVSGELFAQAPVEQYPGIAVETVTDSSRYFVIRIQDGTGRSAFIGIGFTDRGDAFDFNVSLQDHFKWVKQETEISKESQEMDNRPKLDLGFKEGQTIKLSIGNITAKKGGASKPRASGTGGLSLLPPPPGGKVTIPPPSSSVAISNHVTPPPIPKSNHGGNDSDILLDLDSPAPVSTSAPAPVSTSNDLWGDFSTASSSVPNQAPQPSNWVQF
partner: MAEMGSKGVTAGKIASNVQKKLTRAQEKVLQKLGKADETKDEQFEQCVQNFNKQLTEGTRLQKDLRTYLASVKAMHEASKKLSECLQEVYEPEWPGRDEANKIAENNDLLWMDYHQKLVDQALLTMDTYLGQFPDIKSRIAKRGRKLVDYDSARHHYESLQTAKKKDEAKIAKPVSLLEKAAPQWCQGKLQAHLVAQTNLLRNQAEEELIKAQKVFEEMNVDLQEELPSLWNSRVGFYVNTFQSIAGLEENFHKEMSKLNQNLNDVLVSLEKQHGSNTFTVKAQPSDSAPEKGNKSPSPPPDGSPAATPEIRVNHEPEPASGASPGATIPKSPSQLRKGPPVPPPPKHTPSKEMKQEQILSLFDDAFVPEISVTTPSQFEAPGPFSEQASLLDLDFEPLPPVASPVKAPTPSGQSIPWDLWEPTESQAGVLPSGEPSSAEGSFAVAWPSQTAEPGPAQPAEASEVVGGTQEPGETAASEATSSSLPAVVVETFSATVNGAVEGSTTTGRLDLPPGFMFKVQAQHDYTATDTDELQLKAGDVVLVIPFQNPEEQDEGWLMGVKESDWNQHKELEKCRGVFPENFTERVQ
B4: Adaptin ear-binding coat-associated protein 1 (Mus musculus), Q9CR95 (parent)
chain: B3 chain
B5: Adaptin ear-binding coat-associated protein 2 (Mus musculus), Q9D1J1 (parent)
chain: B1 chain

The variants in one assay derive from B1. The conditions noted are these: with ap180_rat Snap91, Q05140.
Turning to R20A, the “effect of a mutation on the interaction” value was “disrupting interaction”.
S41A: the “effect of a mutation on the interaction” value is “increasing interaction”.
As to R101A, the “effect of a mutation on the interaction” value was “disrupting interaction”.

The variants in the next assay derive from B2. The conditions noted are these: with Eps15, A7BFV9.
As for R101A, the “effect of a mutation on the interaction” value was “disrupting interaction”.
Take R20A: the “effect of a mutation on the interaction” value was “disrupting interaction”.

Variants of B3 are the subject of the next assay. The conditions noted are these: with bin1_rat Bin1, O08839.
For the variant R21A, the “effect of a mutation on the interaction” value is “disrupting interaction”.
As to R102A, the “effect of a mutation on the interaction” value is reported as “disrupting interaction”.

The next assay covers variants of B4. The conditions noted are these: with Synj1, Q62910-1.
Sequence of Synj1, Q62910-1 (Q62910 whole entry): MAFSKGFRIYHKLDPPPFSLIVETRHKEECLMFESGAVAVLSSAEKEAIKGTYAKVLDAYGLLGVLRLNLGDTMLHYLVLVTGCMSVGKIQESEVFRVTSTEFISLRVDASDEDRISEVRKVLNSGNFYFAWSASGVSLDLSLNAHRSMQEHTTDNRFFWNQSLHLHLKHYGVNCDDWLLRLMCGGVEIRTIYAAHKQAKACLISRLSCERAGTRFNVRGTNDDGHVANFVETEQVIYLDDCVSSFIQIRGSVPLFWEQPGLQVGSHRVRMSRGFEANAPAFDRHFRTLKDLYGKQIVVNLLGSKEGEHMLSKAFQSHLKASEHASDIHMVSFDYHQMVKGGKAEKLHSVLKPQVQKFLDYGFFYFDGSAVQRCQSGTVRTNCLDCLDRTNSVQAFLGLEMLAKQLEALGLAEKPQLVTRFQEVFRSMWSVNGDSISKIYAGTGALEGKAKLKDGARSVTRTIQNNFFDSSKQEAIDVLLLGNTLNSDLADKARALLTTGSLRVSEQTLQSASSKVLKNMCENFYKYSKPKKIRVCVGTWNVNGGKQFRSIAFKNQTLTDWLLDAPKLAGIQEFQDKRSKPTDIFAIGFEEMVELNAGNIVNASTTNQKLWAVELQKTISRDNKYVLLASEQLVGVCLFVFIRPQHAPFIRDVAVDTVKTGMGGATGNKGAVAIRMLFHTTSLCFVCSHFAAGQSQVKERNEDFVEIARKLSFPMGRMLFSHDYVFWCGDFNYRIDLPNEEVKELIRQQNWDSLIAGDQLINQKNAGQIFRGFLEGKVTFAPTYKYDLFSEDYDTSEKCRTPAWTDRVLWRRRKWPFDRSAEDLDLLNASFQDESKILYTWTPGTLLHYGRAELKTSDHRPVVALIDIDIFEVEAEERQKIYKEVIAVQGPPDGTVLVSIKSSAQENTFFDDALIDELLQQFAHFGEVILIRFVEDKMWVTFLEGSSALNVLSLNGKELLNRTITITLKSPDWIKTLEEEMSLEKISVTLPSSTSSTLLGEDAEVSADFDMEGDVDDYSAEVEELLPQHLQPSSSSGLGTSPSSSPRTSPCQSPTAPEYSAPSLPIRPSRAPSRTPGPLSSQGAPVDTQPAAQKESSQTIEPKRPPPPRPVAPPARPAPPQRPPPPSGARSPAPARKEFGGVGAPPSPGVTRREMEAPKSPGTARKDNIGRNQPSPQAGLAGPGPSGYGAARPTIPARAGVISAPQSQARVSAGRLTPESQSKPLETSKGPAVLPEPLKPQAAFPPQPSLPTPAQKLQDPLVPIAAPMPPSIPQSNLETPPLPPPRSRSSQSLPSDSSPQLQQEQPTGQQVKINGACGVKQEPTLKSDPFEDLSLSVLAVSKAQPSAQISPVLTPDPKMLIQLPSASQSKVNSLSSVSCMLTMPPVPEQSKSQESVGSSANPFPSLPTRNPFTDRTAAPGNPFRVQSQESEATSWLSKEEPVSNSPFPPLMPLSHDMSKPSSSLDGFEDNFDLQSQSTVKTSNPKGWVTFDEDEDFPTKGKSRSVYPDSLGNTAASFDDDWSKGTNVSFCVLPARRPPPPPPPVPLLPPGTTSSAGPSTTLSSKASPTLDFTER
Turning to R21A, the “effect of a mutation on the interaction” value was “decreasing interaction”.
Regarding R102A, the “effect of a mutation on the interaction” value is on record as “disrupting interaction”.

Another assay covers variants of B5. The note with it: with Synj1, Q62910-1.
For R20A, the “effect of a mutation on the interaction” value is given as “decreasing interaction”.
Same read-out and setting: the value for R101A was “disrupting interaction”.

A further assay covers variants of B5. The conditions noted are these: with epn1_rat Epn1, O88339.
Sequence of epn1_rat Epn1, O88339 (O88339 whole entry): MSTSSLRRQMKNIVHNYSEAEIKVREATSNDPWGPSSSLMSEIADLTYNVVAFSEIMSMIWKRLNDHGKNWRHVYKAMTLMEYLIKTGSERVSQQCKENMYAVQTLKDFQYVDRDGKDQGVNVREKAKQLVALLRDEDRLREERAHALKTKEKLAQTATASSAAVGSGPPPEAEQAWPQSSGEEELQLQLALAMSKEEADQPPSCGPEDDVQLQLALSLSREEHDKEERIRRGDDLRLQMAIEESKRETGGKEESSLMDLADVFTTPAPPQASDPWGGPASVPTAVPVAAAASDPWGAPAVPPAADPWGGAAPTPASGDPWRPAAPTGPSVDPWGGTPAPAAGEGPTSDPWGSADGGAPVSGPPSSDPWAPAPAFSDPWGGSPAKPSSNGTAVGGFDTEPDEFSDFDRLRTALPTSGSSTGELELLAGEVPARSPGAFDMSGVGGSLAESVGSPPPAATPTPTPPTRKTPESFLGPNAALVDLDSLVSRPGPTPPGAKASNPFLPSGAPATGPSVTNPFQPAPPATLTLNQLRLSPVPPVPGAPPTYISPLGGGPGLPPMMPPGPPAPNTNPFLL
Take R101A: the “effect of a mutation on the interaction” value is recorded as “disrupting interaction”.
